From article PMC3021753 come the findings set out here.

Assay [1] has as its target T1, YeeV fused to the GAL4 DNA binding domain (pGBD-C1) (E. coli), P64524.
T1 chain: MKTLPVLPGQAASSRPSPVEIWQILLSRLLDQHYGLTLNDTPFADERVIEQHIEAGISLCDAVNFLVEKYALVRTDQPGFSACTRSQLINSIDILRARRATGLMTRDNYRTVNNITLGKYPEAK
The experiment in a line: two-hybrid. To be noted: remark: other sources report otherwise.

The target of assay [2] is MreB fused to the GAL4 DNA binding domain (pGBD-C1) (E. coli), P0A9X4. As to the kind of experiment: two-hybrid. To be noted: remark: other sources report otherwise.

B1: MreB fused to the GAL4 activation domain, P0A9X4 1-347 (natural protein)
chain: MLKKFRGMFSNDLSIDLGTANTLIYVKGQGIVLNEPSVVAIRQDRAGSPKSVAAVGHDAKQMLGRTPGNIAAIRPMKDGVIADFFVTEKMLQHFIKQVHSNSFMRPSPRVLVCVPVGATQVERRAIRESAQGAGAREVFLIEEPMAAAIGAGLPVSEATGSMVVDIGGGTTEVAVISLNGVVYSSSVRIGGDRFDEAIINYVRRNYGSLIGEATAERIKHEIGSAYPGDEVREIEVRGRNLAEGVPRGFTLNSNEILEALQEPLTGIVSAVMVALEQCPPELASDISERGMVLTGGGALLRNLDRLLMEETGIPVVVAEDPLTCVARGGGKALEMIDMHGGDLFSEE
In turn, B1 showed a β-Galactosidase activity (Miller Units) in assay [1] of 98 Miller Units.

B2: FtsZ fused to the GAL4 activation domain (pGAD-C1), P0A9A6 1-383 (natural protein)
chain: MFEPMELTNDAVIKVIGVGGGGGNAVEHMVRERIEGVEFFAVNTDAQALRKTAVGQTIQIGSGITKGLGAGANPEVGRNAADEDRDALRAALEGADMVFIAAGMGGGTGTGAAPVVAEVAKDLGILTVAVVTKPFNFEGKKRMAFAEQGITELSKHVDSLITIPNDKLLKVLGRGISLLDAFGAANDVLKGAVQGIAELITRPGLMNVDFADVRTVMSEMGYAMMGSGVASGEDRAEEAAEMAISSPLLEDIDLSGARGVLVNITAGFDLRLDEFETVGNTIRAFASDNATVVIGTSLDPDMNDELRVTVVATGIGMDKRPEITLVTNKQVQQPVMDRYQQHGMAPLTQEQKPVAKVVNDNAPQTAKEPDYLDIPAFLRKQAD
Turning to B2, the β-Galactosidase activity (Miller Units) in assay [2] was 345 Miller Units.
